Tests used:
[1] = target: human red cone opsin fused at its C-terminus to eGFP or mCherry (human) (UniProt P04000); assay: FRET or BRET
[2] = target: human red cone opsin fused at its C-terminus to eGFP or mCherry (human) (UniProt P04000); assay: fluorescence correlation spectroscopy
[3] = target: human red cone opsin fused at its C-terminus to eGFP or mCherry (human) (UniProt P04000); assay: pulsed-interleaved excitation fluorescence cross-correlation spectroscopy
[4] = target: human red cone opsin with C-terminal 1D4 tag (pcDNA3.1(+), without eGFP) (human) (UniProt P04000); assay: cross-linking

FRET efficiency (average) [1] [%] | FRET efficiency (highest single-cell value) [1] [%] | average molecular brightness [2] [cpsm] | stoichiometry N [2] | median fc (relative cross-correlation) [3] | percent DSG dimers (of monomer plus dimer bands) [4] [%] | Substance
3.6 | 12 | 738 | 2 | 0.19 | – | human red cone opsin fused at its C-terminus to eGFP or mCherry (from UniProt P04000 1-352) (receptor)
– | – | – | – | – | 79 | human red cone opsin with C-terminal 1D4 tag (pcDNA3.1(+), without eGFP) (from UniProt P04000 1-352) (receptor)
